Laboratory results from patent publication US20230193226A1, “BUTYRYLCHOLI[…] AN ENHANCED ABILITY TO HYDROLYZE ACYL GHRELIN” (priority 2014, published 2023).

Columns and labels:
BChE = target: T1, BChE (Mus musculus, UniProt Q03311, A228S/A357W/S256A/S316G/Y361G); assay: Selective BChE inhibition by iso-OMPA in vector-treated mice; type: in vivo; conditions: AAV-mBChE mut mice, iso-OMPA 40 mg kg^-1, 6 hours fast
T1 construct: expressed in transfected cells; host or cells: C57bl/6 mice after AAV-mBChE mut gene transfer; activity measured in serum/plasma
Experimental: FIGS. 6A-6B. […] All mice were then fasted for 6 hours, and serum samples were collected to determine (6A) BChE activity versus the reference substrate (BTCh) and (6B) the levels of acyl ghrelin.

human acyl-ghrelin = assay: Deacylation of human acyl ghrelin by purified human BChE; type: biochemical
Experimental: FIGS. 3A-3D. […] (3B) One ng of human acyl-ghrelin was treated with different amount of human BChE. After 20 hours of incubation, residual acyl ghrelin and desacyl ghrelin in each reaction were determined. (3C) One ng of human acyl ghrelin was treated with 10 µg of human BChE and % decrease in residual acyl ghrelin was measured as a function of time. […] The hydrolysis activities with butyrylthiocholine (BTCh) or acyl-ghrelin as substrates were determined by Ellman assay and acyl-ghrelin immunoassay, respectively. Data are normalized to the no inhibitor controls. All values are means ± SD, each with duplicate samples (n=3).
A sample of purified human BChE was obtained from Dr. O. Lockridge and assessed by gel electrophoresis (FIG. 3A).

human ghrelin = assay: In vitro enzyme screening: ghrelin hydrolyzing activity of purified mutant BChE (ghrelin immunoassay); type: biochemical; conditions: purified enzyme from HEK293 supernatant
[1] = 1 ng human acyl-ghrelin, increasing amounts of human BChE, 20 hours

CC(C)NP(=O)(NC(C)C)OP(=O)(NC(C)C)NC(C)C [iso-OMPA]
BTCh hydrolysis activity of plasma (BChE): abolished | level of acyl ghrelin in plasma (BChE): equivalent to the level observed in AAV-Luc-treated control mice

B1: human BChE (protein, listed as Homo sapiens)
chain: MHSKVTIICIRFLFWFLLLCMLIGKSHTEDDIIIATKNGKVRGMNLTVFGGTVTAFLGIPYAQPPLGRLRFKKPQSLTKWSDIWNATKYANSCCQNIDQSFPGFHGSEMWNPNTDLSEDCLYLNVWIPAPKPKNATVLIWIYGGGFQTGTSSLHVYDGKFLARVERVIVVSMNYRVGALGFLALPGNPEAPGNMGLFDQQLALQWVQKNIAAFGGNPKSVTLFGESAGAASVSLHLLSPGSHSLFTRAILQSGSFNAPWAVTSLYEARNRTLNLAKLTGCSRENETEIIKCLRNKDPQEILLNEAFVVPYGTPLSVNFGPTVDGDFLTDMPDILLELGQFKKTQILVGVNKDEGTAFLVYGAPGFSKDNNSIITRKEFQEGLKIFFPGVSEFGKESILFHYTDWVDDQRPENYREALGDVVGDYNFICPALEFTKKFSEWGNNAFFYYFEHRSSKLPWPEWMGVMHGYEIEFVFGLPLERRDNYTKAEEILSRSIVKRWANFAKYGNPNETQNNSTSWPVFKSTEQKYLTLNTESTRIMTKLRAQQCRFWTSFFPKVLEMTGNIDEAEWEWKAGFHRWNNYMMDWKNQFNDYTSKKESCVGL
acyl ghrelin hydrolysis rate as a function of time (human acyl-ghrelin; 1 ng human acyl ghrelin, 10 µg human BChE): linear hydrolysis rate | amount of acyl ghrelin (human acyl-ghrelin; [1]): decrease in the amount of acyl ghrelin | amount of desacyl ghrelin (human acyl-ghrelin; [1]): increase in the amount of the breakdown product, desacyl ghrelin

B2: A199S/S227A/S287G/A328W/Y332G (protein)
chain: EEDFIITTKTGRVRGLSMPVLGGTVTAFLGIPYAQPPLGSLRFKKPQPLNKWPDIHNATQYANSCYQNIDQAFPGFQGSEMWNPNTNLSEDCLYLNVWIPVPKPKNATVMVWIYGGGFQTGTSSLPVYDGKFLARVERVIVVSMNYRVGALGFLAFPGNPDAPGNMGLFDQQLALQWVQRNIAAFGGNPKSITIFGESSGAASVSLHLLCPQSYPLFTRAILESGSANAPWAVKHPEEARNRTLTLAKFTGCSKENEMEMIKCLRSKDPQEILRNERFVLPSDSILGINFGPTVDGDFLTDMPHTLLQLGKVKKAQILVGVNKDEGTWFLVGGAPGFSKDNDSLITRKEFQEGLNMYFPGVSRLGKEAVLFYYVDWLGEQSPEVYRDALDDVIGDYNIICPALEFTKKFAELENNAFFYFFEHRSSKLPWPEWMGVMHGYEIEFVFGLPLGRRVNYTRAEEIFSRSIMKTWANFAKYGHPNGTQGNSTMWPVFTSTEQKYLTLNTEKSKIYSKLRAPQCQFWRLFFPKVLEMTGDIDETEQEWKAGFHRWSNYMMDWQNQFNDYTSKKESCTAL
ghrelin hydrolyzing activity in vitro (human ghrelin): enhanced activity | ghrelin hydrolyzing activity relative to wild type mouse BChE (human ghrelin): at least 20 fold

B3: A199S/F227A/S287G/A328W/Y332G (protein)
chain: EDDIIIATKNGKVRGMNLTVFGGTVTAFLGIPYAQPPLGRLRFKKPQSLTKWSDIWNATKYANSCCQNIDQSFPGFHGSEMWNPNTDLSEDCLYLNVWIPAPKPKNATVLIWIYGGGFQTGTSSLHVYDGKFLARVERVIVVSMNYRVGALGFLALPGNPEAPGNMGLFDQQLALQWVQKNIAAFGGNPKSVTLFGESSGAASVSLHLLSPGSHSLFTRAILQSGSANAPWAVTSLYEARNRTLNLAKLTGCSRENETEIIKCLRNKDPQEILLNEAFVVPYGTPLGVNFGPTVDGDFLTDMPDILLELGQFKKTQILVGVNKDEGTWFLVGGAPGFSKDNNSIITRKEFQEGLKIFFPGVSEFGKESILFHYTDWVDDQRPENYREALGDVVGDYNFICPALEFTKKFSEWGNNAFFYYFEHRSSKLPWPEWMGVMHGYEIEFVFGLPLERRDNYTKAEEILSRSIVKRWANFAKYGNPNETQNNSTSWPVFKSTEQKYLTLNTESTRIMTKLRAQQCRFWTSFFPKVLEMTGNIDEAEWEWKAGFHRWNNYMMDWKNQFNDYTSKKESCVGL
ghrelin hydrolyzing activity in vitro (human ghrelin): modest activity, comparable to that of wild type human BChE
